Laboratory results reported in patent US10058586B2, “Use of human small leucine zipper protein in adipocyte differentiation procedure” (Korea University Research and Business Foundation, priority 2013, dated 2018).

Assays:
[1] = target: T1, PPARγ2 (Homo sapiens, UniProt P37231); test: His pull-down of purified His-sLZIP with in vitro translated PPARγ2; type: binding; set-up: made in house; host or cells: PPARγ2: TNT in vitro translation system (Promega); His-sLZIP: E. coli BL21, pET-28a(+)
T1 sequence (P37231 1-505): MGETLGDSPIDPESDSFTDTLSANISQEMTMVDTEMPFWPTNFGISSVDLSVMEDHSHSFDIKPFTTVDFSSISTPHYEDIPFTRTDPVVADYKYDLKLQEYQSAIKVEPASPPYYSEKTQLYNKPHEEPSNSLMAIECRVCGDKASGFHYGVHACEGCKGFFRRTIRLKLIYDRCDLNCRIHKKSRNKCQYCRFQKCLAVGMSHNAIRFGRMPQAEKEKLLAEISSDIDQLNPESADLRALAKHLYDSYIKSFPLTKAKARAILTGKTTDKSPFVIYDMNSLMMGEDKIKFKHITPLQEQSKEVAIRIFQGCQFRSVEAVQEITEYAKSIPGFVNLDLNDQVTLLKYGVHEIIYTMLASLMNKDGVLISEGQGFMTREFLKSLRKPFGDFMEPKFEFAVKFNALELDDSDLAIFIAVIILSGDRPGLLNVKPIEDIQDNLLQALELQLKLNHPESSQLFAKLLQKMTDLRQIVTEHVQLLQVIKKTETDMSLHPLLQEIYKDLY
Method: sLZIP was cloned into a pET-28a(+) vector. His-sLZIP proteins were expressed in Escherichia coli (E. coli) BL21 cells using a T7 isopropyl-β-D-thiogalactopyranoside (IPTG)-inducible system. IPTG-induced cells were disrupted bysonification and cell lysates were clarified by centrifugation. His-sLZIP proteins were applied onto a nickel-nitrilotriacetic acid bead column (Bio-Rad, Richmond, Calif.). The column was washed with a great volume of a lysis buffer and 10 mM of imidazole, and eluted in a Ni-NTA elution buffer (Bio-Rad Laboratories, Hercules, Calif.). A fraction containing His-sLZIP proteins was dialyzed against 10% glycerol, and stored at −80° C. Protein purification was evaluated according to 10% SDS-PAGE/Coomassie blue staining and a purity of >98% in general was shown.
In order to examine whether the transcriptional activity of PPARγ2 is regulated by interaction with sLZIP, interaction between sLZIP and PPARγ2 was examined. […] A protein complex was analyzed in SDS-PAGE and then immunoblotted with specific antibodies (FIG. 2A). […] Proteins bound to the bead were analyzed in SDS-PAGE, and then immunoblotted with anti-PPARγ2 and anti-His antibodies (FIG. 2C). GFP-PPARγ2 and Flag-sLZIP constructs were expressed in C3H10T1/2 cells, and analyzed using mouse anti-Flag and Texas Red-labeled anti-mouse antibodies under a fluorescence microscope. […]

[2] = tested on: CREB element in the FABP4 enhancer region; test: Electrophoretic mobility shift assay (EMSA) of His-sLZIP with FABP4 enhancer probes; type: binding
Method: T4 polynucleotide kinase (Promega, Madison, Wis.) was used to label 5′-terminal of oligonucleotides with [γ-^32P]ATP (Perkin Elmer, Waltham, Mass.). According to instructions of the manufacturer, unbound nucleotides were removed through tubes in a Bio-Gel P-6 spin column (Bio-Rad, Inc., Hercules, Calif.). His-sLZIP proteins were pre-incubated for 20 minutes at room temperature in a 5× binding buffer [10×GRAB, 20 mM of DTT, poly(deoxyinosinic-deoxycytidylic), Sigma, St. Louis] and radiolabeled probes. Reaction mixtures were loaded in wells of 4% nondenaturing polyacrylamide gels, and subjected to electrophoresis for 45 minutes at 180 V in a 0.5×TBE buffer. For competition experiments, a binding reaction was incubated for 30 minutes with 100-fold molar excess of unlabeled CREB binding oligonucleotides before radiolabeled oligonucleotides were added. For supershift analysis, anti-His antibodies were added to a reaction mixture on ice for additional 30 minutes.
A DNA binding ability of sLZIP with various elements in the FABP4 enhancer region was examined. For this purpose, recombinant His-sLZIP fusion proteins (3 μg) were incubated with γ-^32P-labeled oligonucleotide probes containing expected CREB binding elements (FIG. 7B). The γ-^32P-labeled oligonucleotide probes were incubated while an amount of purified His-sLZIPs was increased. For competition analysis, unlabeled CREB oligonucleotide probes of 100-fold excess were used and His antibodies were added to a reaction mixture on ice for additional […] (FIG. 7C). His-sLZIP proteins were subjected to EMSA using wild type and CREB mutant (TGATGTCA→TGGGGTCA) probes (FIG. 7D). 293T cells were temporarily transfected with PPARγ2 (0.5 μg), β-galactosidase (0.1 μg), FABP4 enhancer-luciferase reporter genes (0.2 μg) and sLZIP mutants at different contents (0.1 to 0.5 μg). After the transfection, the cells were stimulated with 10 nM of RZD (FIG. 7F). A luciferase activity was normalized to a β-galactosidase activity and represented as a relative activity (fold change). All experiments were repeated three times, and bars in the graph represent mean±standard deviation. ChIP analysis was performed using HA-sLZIP-specific antibodies and then PCR was performed. Input chromatins or immunoprecipitated chromatins were subjected to PCR and used as a control group for variables.

B1: sLZIP: human small leucine-zipper protein, isoform of LZIP, 354 amino acids, no transmembrane domain; GenBank FJ263669, SEQ ID NO: 1 (protein, listed as Homo sapiens)
chain: MELELDAGDQDLLAFLLEESGDLGTAPDEAVRAPLDWALPLSEVPSDWEVDDLLCSLLSPPASLNILSSSNPCLVHHDHTYSLPRETVSMDLESESCRKEGTQMTPQHMEELAEQEIARLVLTDEEKSLLEKEGLILPETLPLTKTEEQILKRVRRKIRNKRSAQESRRKKKVYVGGLESRVLKYTAQNMELQNKVQLLEEQNLSLLDQLRKLQAMVIEISNKTSSSSMYSSDTRGSLPAEHGVLSRQLRALPSEDPYQLELPALQSEVPKDSTHQWLDGSDCVLQAPGNTSCLLHYMPQAPSAEPPLEWPFPDLFSEPLCRGPILPLQANLTRKGGWLPTGSPSVILQDRYSG
[1]
  direct interaction with PPARγ2 (His pull-down): PPARγ2 was directly bound to sLZIP
[2]; 100-fold excess unlabeled CREB probes
  DNA binding to CREB element (EMSA, cold competition): not bound to the CREB element when there were competitors
[2]; CREB mutant TGATGTCA→TGGGGTCA
  DNA binding to CREB mutant probes (EMSA): not bound to CREB mutant probes
[2]; His antibodies added
  supershift (EMSA): supershifted
[2]; His-sLZIP 3 μg, labeled probes
  DNA binding to elements in the FABP4 enhancer region (EMSA): directly bound to a CREB region
[2]; increasing amount of purified His-sLZIP
  DNA binding ability with CREB element (EMSA): increased in a concentration-dependent manner
